In patent publication US20160151487A1 (Hoffmann-La Roche, published 2016):
Residue numbers refer to the chain shown, from its start. Names may count otherwise.

B1: <IGF-1R> IgG1 knob wt, hole H310A, H433A, Y436A (antibody)
light: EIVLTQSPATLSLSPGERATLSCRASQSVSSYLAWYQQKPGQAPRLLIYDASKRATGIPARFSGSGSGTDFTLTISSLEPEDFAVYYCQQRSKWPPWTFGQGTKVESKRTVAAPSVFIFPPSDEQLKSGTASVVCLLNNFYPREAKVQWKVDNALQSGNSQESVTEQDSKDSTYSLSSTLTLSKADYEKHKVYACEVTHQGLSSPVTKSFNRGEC
heavy 1: not shown
heavy 2: QVELVESGGGVVQPGRSQRLSCAASGFTFSSYGMHWVRQAPGKGLEWVAIIWFDGSSTYYADSVRGRFTISRDNSKNTLYLQMNSLRAEDTAVYFCARELGRRYFDLWGRGTLVSVSSASTKGPSVFPLAPSSKSTSGGTAALGCLVKDYFPEPVTVSWNSGALTSGVHTFPAVLQSSGLYSLSSVVTVPSSSLGTQTYICNVNHKPSNTKVDKKVEPKSCDKTHTCPPCPAPELLGGPSVFLFPPKPKDTLMISRTPEVTCVVVDVSHEDPEVKFNWYVDGVEVHNAKTKPREEQYNSTYRVVSVLTVLAQDWLNGKEYKCKVSNKALPAPIEKTISKAKGQPREPQVCTLPPSRDELTKNQVSLSCAVKGFYPSDIAVEWESNGQPENNYKTTPPVLDSDGSFFLVSKLTVDKSRWQQGNVFSCSVMHEALANHATQKSLSLSPGK
notes: also called IGF-1R 0035; anti-IGF-1R antibody (knobs-into-holes), one chain with H310A/H433A/Y436A
B2: <IgF-1R> IgG1 knob wt, hole I253A, H310A, H435A (antibody)
light: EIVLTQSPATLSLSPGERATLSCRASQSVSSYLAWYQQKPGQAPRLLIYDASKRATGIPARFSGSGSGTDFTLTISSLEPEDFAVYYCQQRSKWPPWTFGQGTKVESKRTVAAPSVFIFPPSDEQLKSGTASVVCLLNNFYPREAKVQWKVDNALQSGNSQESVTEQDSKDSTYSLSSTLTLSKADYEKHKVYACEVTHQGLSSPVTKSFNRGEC
heavy 1: not shown
heavy 2: B1 heavy 2 with I254A, A434H, H436A, A437Y
notes: T0033 lists L234A/L235A/P329G for IGF-1R 0034; also called IGF-1R 0034; anti-IGF-1R antibody (knobs-into-holes), one chain with I253A/H310A/H435A
B3: <IGF-1R> IgG1 knob wt, hole M252Y, S254T, T256E (antibody)
light: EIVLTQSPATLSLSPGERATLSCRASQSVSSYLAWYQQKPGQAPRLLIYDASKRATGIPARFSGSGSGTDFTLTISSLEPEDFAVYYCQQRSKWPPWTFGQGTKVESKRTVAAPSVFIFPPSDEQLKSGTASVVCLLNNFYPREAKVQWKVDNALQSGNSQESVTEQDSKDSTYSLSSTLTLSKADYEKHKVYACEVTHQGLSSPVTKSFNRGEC
heavy 1: not shown
heavy 2: B1 heavy 2 with M253Y, S255T, T257E, A311H, A434H, A437Y
notes: T0033 lists L234A/L235A/P329G for IGF-1R 0036; also called IGF-1R 0036; anti-IGF-1R antibody (knobs-into-holes), one chain with M252Y/S254T/T256E
B4: <IGF-1R> IgG1 knob wt, hole L251D, L314D, L432D (antibody)
light: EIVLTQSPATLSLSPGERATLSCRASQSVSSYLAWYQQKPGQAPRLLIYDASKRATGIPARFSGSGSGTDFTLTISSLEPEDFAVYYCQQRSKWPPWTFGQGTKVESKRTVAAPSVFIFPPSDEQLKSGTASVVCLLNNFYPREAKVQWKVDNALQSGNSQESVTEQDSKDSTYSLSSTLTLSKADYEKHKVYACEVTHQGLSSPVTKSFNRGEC
heavy 1: not shown
heavy 2: B1 heavy 2 with L252D, A311H, L315D, L433D, A434H, A437Y
notes: T0033 lists L234A/L235A/P329G for IGF-1R 0037; also called IGF-1R 0037; anti-IGF-1R antibody (knobs-into-holes), one chain with L251D/L314D/L432D
B5: <IGF-1R> IgG1 with M252Y, S254T, T256E (antibody)
light: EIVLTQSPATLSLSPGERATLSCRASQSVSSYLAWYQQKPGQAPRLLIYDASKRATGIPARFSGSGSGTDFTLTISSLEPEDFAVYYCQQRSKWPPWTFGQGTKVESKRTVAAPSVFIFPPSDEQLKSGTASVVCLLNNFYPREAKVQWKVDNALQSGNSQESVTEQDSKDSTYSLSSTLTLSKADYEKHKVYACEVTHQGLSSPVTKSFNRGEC
heavy: QVELVESGGGVVQPGRSQRLSCAASGFTFSSYGMHWVRQAPGKGLEWVAIIWFDGSSTYYADSVRGRFTISRDNSKNTLYLQMNSLRAEDTAVYFCARELGRRYFDLWGRGTLVSVSSASTKGPSVFPLAPSSKSTSGGTAALGCLVKDYFPEPVTVSWNSGALTSGVHTFPAVLQSSGLYSLSSVVTVPSSSLGTQTYICNVNHKPSNTKVDKKVEPKSCDKTHTCPPCPAPELLGGPSVFLFPPKPKDTLYITREPEVTCVVVDVSHEDPEVKFNWYVDGVEVHNAKTKPREEQYNSTYRVVSVLTVLHQDWLNGKEYKCKVSNKALPAPIEKTISKAKGQPREPQVYTLPPSRDELTKNQVSLTCLVKGFYPSDIAVEWESNGQPENNYKTTPPVLDSDGSFFLYSKLTVDKSRWQQGNVFSCSVMHEALHNHYTQKSLSLSPG
notes: also called YTE-mutant of anti-IGF-1R antibody

Legend:
[1] = target: T1, human neonatal Fc-receptor (FcRn), soluble extracellular domain with His-Avi Tag, co-expressed with … (human, UniProt P55899 24-297; P61769 21-119, biotinylated (Avi Tag) for the affinity column); experiment: FcRn affinity chromatography
T1 construct: SPR: amine-coupled to a CM5 chip (400 RU), pH 6.0; also called huFcRn; FcRn/beta2-microglobulin
T1 sequence (P55899 24-297 limits assumed, chain 1 of 2): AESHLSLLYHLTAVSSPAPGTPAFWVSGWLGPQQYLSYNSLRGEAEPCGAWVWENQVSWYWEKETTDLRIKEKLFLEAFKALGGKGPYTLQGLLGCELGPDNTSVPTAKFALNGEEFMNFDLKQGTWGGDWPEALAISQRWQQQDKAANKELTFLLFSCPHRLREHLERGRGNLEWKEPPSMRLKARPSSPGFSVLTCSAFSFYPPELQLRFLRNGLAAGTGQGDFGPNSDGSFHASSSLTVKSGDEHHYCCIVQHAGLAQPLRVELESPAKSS
T1 sequence (P61769 21-119 limits assumed, chain 2 of 2): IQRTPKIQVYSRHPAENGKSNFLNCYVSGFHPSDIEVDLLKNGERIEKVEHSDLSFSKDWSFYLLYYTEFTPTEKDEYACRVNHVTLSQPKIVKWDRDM
Procedure: Antibody samples containing 50 to 100 μg of protein were adjusted to pH 5.5 and applied to the FcRn column using ÄKTA explorer 10 XT or Dionex Summit (Dionex, Idstein, Germany). The column with 5 cm bed height was then washed with 5-10 column volumes of equilibration buffer 20 mM MES, 150 mM NaCl, pH 5.5. […] For complete elution of modified antibodies, the pH was increased in the gradient up to pH 8.8. The experiments were carried out at room temperature. The elution profile was obtained by continuous measurement of the absorbance at 280 nm. The time taken for an analyte peak, X, to reach the detector after sample injection was called the retention time.

[2] = target: T1, human neonatal Fc-receptor (FcRn), …; experiment: SPR (BIAcore T100), FcRn immobilized on CM5 chip by amine coupling (400 RU), 200 nM antibody injected, PBS 0.05% Tween-20 pH 6.0, room temperature
Procedure: The binding properties of wild-type antibody and the mutants to FcRn were analyzed by surface plasmon resonance (SPR) technology using a BIAcore T100 instrument (BIAcore AB, Uppsala, Sweden). […] In the current assay, the FcRn receptor was immobilized onto a BIAcore CM5-biosensor chip (GE Healthcare Bioscience, Uppsala, Sweden) via amine coupling to a level of 400 Response units (RU). The assay was carried out at room temperature with PBS, 0.05% Tween-20TM pH 6.0 (GE Healthcare Bioscience) as running and dilution buffer. 200 nM of antibody samples were injected at a flow rate of 50 μL/min at room temperature. Association time was 180 seconds, dissociation phase took 360 seconds. Regeneration of the chip surface was reached by a short injection of HBS-P, pH 8.0. Evaluation of SPR-data was performed by comparison of the biological response signal height at 180 seconds after injection and at 300 seconds after injection. The corresponding parameters are the RU max level (180 seconds after injection) and late stability (300 seconds after end of injection).

| Binder | retention time on FcRn affinity column [1] [min] | binding result [2] |
| --- | --- | --- |
| B1 | 42.4 | – |
| B2 | 42 | – |
| B3 | 57.6 | – |
| B4 | 40.9 | – |
| B5 | – | binds |
